From patent US6897049B1, “Proteins producing an altered immunogenic response and methods of making and using the same” (Genencor International, Inc., priority 1998, dated 2005)

Columns and labels:
naïve human CD4+ T-cells = test: T-cell proliferation assay with differentiated dendritic cells and naïve human CD4+ T-cells (tritium incorporation); assay type: cell-based; settings: using the methods herein
Description: Fresh human peripheral blood cells were collected from “naïve” humans, i.e., persons not known to be exposed to or sensitized to Bacillus lentus protease, for determination of antigenic epitopes in protease from Bacillus lentus and human subtilisin. Naïve humans is intended to mean that the individual is not known to have been exposed to or developed a reaction to protease in the past. Peripheral mononuclear blood cells (stored at room temperature, no older than 24 hours) were prepared for use as follows: Approximately 30 mls of a solution of buffy coat preparation from one unit of whole blood was brought to 50 ml with Dulbecco's phosphate buffered solution (DPBS) and split into two tubes. […] The cell density of the resultant solution was measured by hemocytometer. Viability was measured by trypan blue exclusion.
From the resulting solution, a differentiated dendritic cell culture was prepared from the peripheral blood mononuclear cell sample having a density of 10^8 cells per 75 ml culture flask in a solution as follows: • (1) 50 ml of serum free AIM V media (Gibco) was supplemented with a 1:100 dilution beta-mercaptoethanol (Gibco). […] Adherent and non-adherent cells were then centrifuged at 600 G for 5 minutes, washed in DPBS and counted. • (4) The prepared dendritic cells were placed into a 96 well round bottom array at 2×10^4/well in 100 microliter total volume of AIM V media. […]

guinea pig splenocytes = test: T cell epitope mapping with splenocytes of immunized guinea pigs (thymidine incorporation); assay type: cell-based; settings: guinea pigs immunized with 20 μg subtilisin; 15-mer peptides at 5 μM; >10 animals
Description: B. lentis and B. amyloliquefaciens subtilisin T cell epitope mapping: Guinea pigs were immunized with 20 μg/immunization of subtilisin from either B. lentis or B. amyloliquefaciens. Animals were immunized subcutaneously in adjuvant every two weeks for 10 to 12 weeks. A single cell suspension of guinea pig splenocytes was created from each animal's spleen. Cells were plated at 5×10^5 splenocytes per well in round bottom 96 well plates. 15-mer peptides off-set by 3 amino acids were synthesized by Mimotopes. Peptides were resuspended to 1 mM in DMSO. Peptides were added to the cells at a final concentration of 5 μM. Cultures were incubated for 5 days at 37°, 5% CO2. Wells were pulsed with 0.5 μCi tritiated thymidine, and allowed to incubate for an additional 18 hours. Wells were harvested, and thymidine incorporation assessed.

Hartley guinea pigs = test: Guinea pig model of immunogenicity, antigen-specific IgG titers by direct ELISA; assay type: in vivo
Description: Guinea pig immunizations: Adult female Hartley guinea pigs were immunized with various doses of B. amyloliquefaciens subtilisin and GP002. The doses were 1, 5, 10, and 20 μg/dose. There were four animals for each dose. Animals were immunized subcutaneously with enzyme in Complete Freund's Adjuvant for the first immunization. All subsequent immunizations were performed in Incomplete Freund's adjuvant. Animals were immunized, and a serum sample taken, every two weeks.
ELISA: A direct ELISA was performed. Costart EIA plates were coated with 10 μg/ml of the immunizing enzyme in PBS overnight at 4° C. Plates were washed and blocked with 1% BSA in PBS. Serum samples were diluted in 1% BSA/PBS, and incubated on the enzymes coated plates for 1 hour. Serum samples were washed out, and biotinylated anti-guinea pig IgG was added at a 1:10,000 dilution in 1% BSA/PBS. The secondary reagent was incubated for 1 hour. The wells were washed, and avidin conjugated horse radish peroxidase was added to the wells at a 1:1000 dilution in 1% BSA/PBS. After 30 minutes, the substrate (ABTS) was added and the OD405 was read after 30 minutes.
Calculation of titers: Background was subtracted from the OD readings, and the results plotted for each individual guinea pig. […] The titer value was calculated from the linear regression equation for an OD=0.5. […]

[1] = tested on: HLA DR3/DQ2 transgenic mice; test: Immunization of HLA-DR3/DQ2/C2D transgenic mice, antigen-specific IgG by direct ELISA; assay type: in vivo; settings: 2 x 50 μg i.p.
Description: Adult male HLA-DR31DQ2/C2D mice were immunized with 50 μg of FNA or FNA Variant emulsified in Complete Freund's Adjuvant. The immunization was administered intraperitoneally. Two weeks later, the mice received another intraperitoneal immunization of 50 μg FNA or the Variant emulsified in Incomplete Freund's Adjuvant. One week later, the mice were bled via the retro-orbital route, and the serum collected. Serum was assessed for antigen-specific IgG antibodies in a direct ELISA protocol. Briefly, 96 well flat-bottomed EIA plates were coated overnight with 10 μg/ml of denatured FNA. Plates were washed, blocked with 1% Fetal Calf Serum, and serum was titered out at 1:10 dilutions. The serum was washed out of the wells, and antigen-specific IgG was detected with horse radish peroxidase conjugated anti-mouse IgG. Results are presented as serum dilution versus average optical density (×1000) in Table 1 and FIG. 21.

B1: proteinase K: Proteinase K from Tritirachium Album limber (protein, UniProt P06873 106-384, looked up)
Proteinase K: AAQTNAPWGLARISSTSPGTSTYYYDESAGQGSCVYVIDTGIEASHPEFEGRAQMVKTYYYSSRDGNGHGTHCAGTVGSRTYGVAKKTQLFGVKVLDDNGSGQYSTIIAGMDFVASDKNNRNCPKGVVASLSLGGGYSSSVNSAAARLQSSGVMVAVAAGNNNADARNYSPASEPSVCTVGASDRYDRRSSFSNYGSVLDIFGPGTSILSTWIGGSTRSISGTSMATPHVAGLAAYLMTLGKTTAASACRYIADTANKGDLSNIPFGTVNLLAYNNYQA
**Q.** Which “immunogenic response compared with other commercially available proteases” value (naïve human CD4+ T-cells) does the source give for B1 here?
**A.** Its value is “lower immunogenic response”.

B2: B. lentis subtilisin: subtilisin protease from Bacillus lentus (GG36), SEQ ID NO: 6 (protein)
chain: AQSVPWGISRVQAPAAHNRGLTGSGVKVAVLDTGISTHPDLNIRGGASFVPGEPSTQDGNGHGTHVAGTIAALNNSIGVLGVAPSAELYAVKVLGASGSGSVSSIAQGLEWAGNNGMHVANLSLGSPSPSATLEQAVNSATSRGVLVVAASGNSGAGSISYPARYANAMAVGATDQNNNRASFSQYGAGLDIVAPGVNVQSTYPGSTYASLNGTSMATPHVAGAAALVKQKNPSWSNVQIRNHLKNTATSLGSTNLYGSGLVNAEAATR
**Q.** Which results are given for B2?
**A.** T cell epitopes found (guinea pig splenocytes): Two; immunogenicity in Hartley strain guinea pigs (Hartley guinea pigs): highly immunogenic

B3: Bacillus amyloliquefaciens subtilisin: Bacillus amyloliquefaciens subtilisin (BPN′), SEQ ID NO: 3 (protein)
chain: AQSVPYGVSQIKAPALHSQGYTGSNVKVAVIDSGIDSSHPDLKVAGGASMVPSETNPFQDNNSHGTHVAGTVAALNNSIGVLGVAPSASLYAVKVLGADGSGQYSWIINGIEWAIANNMDVINMSLGGPSGSAALKAAVDKAVASGVVVVAAAGNEGTSGSSSTVGYPGKYPSVIAVGAVDSSNQRASFSSVGPELDVMAPGVSIQSTLPGNKYGAYNGTSMASPHVAGAAALILSKHPNWTNTQVRSSLENTTTKLGDSFYYGKGLINVQAAAQ
**Q.** B3 was tested. Which “T cell epitopes found” value (guinea pig splenocytes) did it give?
**A.** Its value is “none”.

**Q.** What about the “immunogenicity in Hartley strain guinea pigs” value (Hartley guinea pigs) of the same molecule?
**A.** Its value is “comparatively non-immunogenic”.

B4: FNA: BPN′ with a Y217L substitution; precursor of the variant (protein, UniProt P00782 108-382, looked up, variant Y217L)
Subtilisin BPN': AQSVPYGVSQIKAPALHSQGYTGSNVKVAVIDSGIDSSHPDLKVAGGASMVPSETNPFQDNNSHGTHVAGTVAALNNSIGVLGVAPSASLYAVKVLGADGSGQYSWIINGIEWAIANNMDVINMSLGGPSGSAALKAAVDKAVASGVVVVAAAGNEGTSGSSSTVGYPGKYPSVIAVGAVDSSNQRASFSSVGPELDVMAPGVSIQSTLPGNKYGALNGTSMASPHVAGAAALILSKHPNWTNTQVRSSLENTTTKLGDSFYYGKGLINVQAAAQ
**Q.** What does the source list for B4?
**A.** average optical density (×1000), antigen-specific IgG ([1]; serum dilution 10): 2937.5; average optical density (×1000), antigen-specific IgG ([1]; serum dilution 100): 2476; average optical density (×1000), antigen-specific IgG ([1]; serum dilution 1000): 1695; average optical density (×1000), antigen-specific IgG ([1]; serum dilution 10000): 641.5; average optical density (×1000), antigen-specific IgG ([1]; serum dilution 100000): 207; average optical density (×1000), antigen-specific IgG ([1]; serum dilution 1000000): 129.5; average optical density (×1000), antigen-specific IgG ([1]; serum dilution 10000000): 88.5
